The target in one assay is HLA-B*27:05. Description: IEDB peptide-MHC binding, purified MHC/competitive/fluorescence; ≥ and ≤ were set here for values at or beyond the usual limits of such assays. The following applies: source organism: hepatitis C virus genotype 1a.
Another assay concerns the target HLA-C*15:02. In words: IEDB peptide-MHC binding, purified MHC/direct/fluorescence; filed as Kd, often an IC50 or EC50 that approximates it; ≥ and ≤ were set here for values at or beyond the usual limits of such assays.
The target of another assay is HLA-B*57:01. The description is as above.
The next assay has as its target HLA-B*15:17. Described as above. Particulars: source organism: Influenza A virus (A/finch/Canada/NS1301/2001(H3N8)).
Another assay has as its target HLA-B*58:01. Described as above.
The next assay addresses HLA-B*45:06. In words: IEDB peptide-MHC binding, purified MHC/competitive/fluorescence; filed as Kd, often an IC50 or EC50 that approximates it; ≥ and ≤ were set here for values at or beyond the usual limits of such assays.
In a further assay the target is HLA-A*32:07. The description is as above. The following applies: source organism: Influenza A virus (A/Fort Monmouth/1/1947-mouse adapted(H1N1)).
A further assay has as its target HLA-A*32:15. The assay is described as above. Particulars: source organism: Influenza A virus (A/Fort Monmouth/1/1947-mouse adapted(H1N1)).
In a further assay the target is HLA-B*15:42. The assay is described as above.
A further assay addresses HLA-B*83:01. Described as above.
The next assay has as its target HLA-A*68:23. The description is as above. The following applies: source organism: Influenza A virus (A/Fort Monmouth/1/1947-mouse adapted(H1N1)).
The target of another assay is HLA-A*02:01. In words: IEDB peptide-MHC binding, cellular MHC/competitive/fluorescence; ≥ and ≤ were set here for values at or beyond the usual limits of such assays. The following applies: source organism: Homo sapiens.
The target in another assay is HLA-B*35:01. The assay is described as above. Particulars: source organism: Mycobacterium tuberculosis H37Rv.
For another assay, the target named is HLA-A*24:03. In words: IEDB peptide-MHC binding, purified MHC/direct/fluorescence; filed as Kd, often an IC50 or EC50 that approximates it; ≥ and ≤ were set here for values at or beyond the usual limits of such assays. The following applies: source organism: Francisella tularensis subsp. tularensis FSC033.
Another assay addresses HLA-B*07:02. The assay is described as above. The following applies: source organism: Francisella tularensis subsp. tularensis FSC033.
The target of another assay is HLA-B*51:01. The description is as above. Particulars: source organism: Francisella tularensis subsp. tularensis FSC033.
The target in assay [1] is HLA-A*29:02. The assay is described as above. Particulars: source organism: Francisella tularensis subsp. tularensis FSC033.
The next assay concerns the target HLA-B*18:01. The description is as above. The following applies: source organism: Francisella tularensis subsp. tularensis FSC033.
Another assay has as its target HLA-A*02:19. Described as above. Particulars: source organism: Francisella tularensis subsp. tularensis FSC033.
In another assay the target is HLA-B*40:01. The assay is described as above. Particulars: source organism: Francisella tularensis subsp. tularensis FSC033.
A further assay concerns the target HLA-A*30:01. The description is as above. The following applies: source organism: Francisella tularensis subsp. tularensis FSC033.
In the next assay the target is HLA-B*44:02. The description is as above. Particulars: source organism: Francisella tularensis subsp. tularensis FSC033.
A further assay concerns the target HLA-A*02:50. Described as above. The following applies: source organism: Francisella tularensis subsp. tularensis FSC033.
A further assay deals with HLA-A*23:01. The assay is described as above. Particulars: source organism: Francisella tularensis subsp. tularensis FSC033.
The target in the next assay is HLA-A*26:01. In words: IEDB peptide-MHC binding, purified MHC/competitive/fluorescence; filed as Kd, often an IC50 or EC50 that approximates it; ≥ and ≤ were set here for values at or beyond the usual limits of such assays. The following applies: source organism: Francisella tularensis subsp. tularensis FSC198.
For a further assay, the target named is HLA-A*80:01. Description: IEDB peptide-MHC binding, purified MHC/direct/fluorescence; filed as Kd, often an IC50 or EC50 that approximates it; ≥ and ≤ were set here for values at or beyond the usual limits of such assays. The following applies: source organism: Mus musculus.
For assay [2], the target named is HLA-A*29:02. Description: IEDB peptide-MHC binding, purified MHC/competitive/fluorescence; filed as Kd, often an IC50 or EC50 that approximates it; ≥ and ≤ were set here for values at or beyond the usual limits of such assays. Particulars: source organism: Homo sapiens.
The next assay deals with HLA-C*06:02. The assay is described as above. The following applies: source organism: Homo sapiens.
The target of the next assay is HLA-C*14:02. The assay is described as above.
The target of a further assay is HLA-A*01:01. Described as above. Particulars: source organism: Homo sapiens.
The next assay concerns the target HLA-C*05:01. In words: IEDB peptide-MHC binding, purified MHC/direct/fluorescence; filed as Kd, often an IC50 or EC50 that approximates it; ≥ and ≤ were set here for values at or beyond the usual limits of such assays. The following applies: source organism: Bacillus anthracis str. A2012.
The target of another assay is HLA-C*07:02. The assay is described as above. Particulars: source organism: Bacillus anthracis str. A2012.
Another assay has as its target HLA-B*27:20. In words: IEDB peptide-MHC binding, purified MHC/competitive/fluorescence; filed as Kd, often an IC50 or EC50 that approximates it; ≥ and ≤ were set here for values at or beyond the usual limits of such assays. Particulars: source organism: Bacillus anthracis str. A2012.
For the next assay, the target named is HLA-B*15:02. Described as above. The following applies: source organism: Bacillus anthracis str. A2012.
Where [3] appears, read: source organism: Influenza A virus (A/Fort Monmouth/1/1947-mouse adapted(H1N1)).
[4] abbreviates: source organism: Influenza A virus (A/finch/Canada/NS1301/2001(H3N8)).
[5] abbreviates: source organism: Francisella tularensis subsp. tularensis FSC033.
The mark [6] stands for this setting: source organism: Bacillus anthracis str. A2012.

In the Immune Epitope Database (IEDB) one finds IC50 and Kd data, which are given here for seven sequences.

As a reminder, the IC50 is the point on the concentration scale where inhibition reaches its midpoint. High values mean lower potency, low ones higher potency. What is called Kd is the free concentration of one partner at which half of the binding sites on the other are occupied at equilibrium, for simple one-to-one binding. Higher therefore signals weaker binding.

On to GRAVICGKY, for which the IC50 with HLA-B*27:05 was determined as 32 nM.

As for GTFEFTSFF, the Kd is 3660 nM with HLA-C*15:02 (setting [3]); 360 nM with HLA-B*57:01 (setting [4]); 5.9 nM with HLA-B*15:17; 496 nM in the assay with HLA-B*58:01 (setting [4]); not below 5000 nM in the assay with HLA-B*45:06 (setting [3]); 23.8 nM with HLA-A*32:07. The Kd with HLA-A*32:15 was 893 nM; with HLA-B*15:42 (setting [3]), not below 5000 nM; with HLA-B*83:01 (setting [3]) it was not below 5000 nM; with HLA-A*68:23, 5.7 nM.

As for LLLDVPTAAVQA, the IC50 with HLA-A*02:01 came out at 1890 nM.

The sequence LPAKFLEGF returned a half-maximal inhibitory concentration (IC50) with HLA-B*35:01 of 700 nM.

Consider NTIEELSGY, for which the Kd with HLA-A*24:03 was not below 20000 nM; with HLA-B*07:02, not below 20000 nM; in the assay with HLA-B*51:01, not below 20000 nM; with HLA-A*29:02 [1], 28 nM; with HLA-B*18:01, not below 20000 nM; in the assay with HLA-B*57:01 (setting [5]), not below 20000 nM. The Kd with HLA-A*02:19, with HLA-B*40:01, with HLA-A*30:01, with HLA-B*44:02, in the assay with HLA-A*02:50 and with HLA-B*58:01 (setting [5]) was not below 20000 nM throughout. In addition, the values for the equilibrium dissociation constant (Kd) with HLA-A*23:01 and in the assay with HLA-A*26:01 were not below 20000 nM and 0.6 nM, respectively.

Turning to TFMDHVLRY, the dissociation constant (Kd) in the assay with HLA-A*80:01 was 109 nM; with HLA-B*45:06 (source organism: Homo sapiens) it was not below 5000 nM; with HLA-A*29:02 [2], not above 0.1 nM; in the assay with HLA-C*06:02 it was 663 nM; with HLA-C*14:02 (source organism: Homo sapiens) it was 0.4 nM; with HLA-B*15:42 (source organism: Homo sapiens), not below 5000 nM. Besides, the Kd with HLA-B*83:01 (source organism: Homo sapiens) was not below 5000 nM; in the assay with HLA-A*01:01 it was 1400 nM.

Turning to WMYYPRSPV, the equilibrium dissociation constant (Kd) in the assay with HLA-C*05:01 is not below 20000 nM; with HLA-C*07:02, 667 nM; in the assay with HLA-C*15:02 (setting [6]), not below 20000 nM; in the assay with HLA-B*45:06 (setting [6]) it was not below 5000 nM; in the assay with HLA-B*27:20, 0.2 nM; with HLA-C*14:02 (setting [6]), 6.8 nM. Also, the dissociation constant Kd with HLA-B*15:42 (setting [6]) was not below 5000 nM; in the assay with HLA-B*83:01 (setting [6]), not below 5000 nM; with HLA-B*15:02, 391 nM.
